This is an account of results in article PMC9816786 (Molecular Metabolism, 2022).

The target in assay [1] is T1, Human CAP1 (cyclase associated protein 1), 6xHis-tagged, purified (human, UniProt Q01518 1-475, biotinylated where it was immobilised for BLI (site not told)).
T1 construct: human adenylyl cyclase-associated protein 1 (CAP1), cDNA cloned into pCMV; also called adenylyl cyclase-associated protein 1; biotinylated CAP1; source: FreeStyle293 FS cells, transfected, purified (NiNTA, size-exclusion chromatography)
The experiment in a line: BLI; biotinylated PCSK9 or biotinylated CHRD immobilised (0.2 μg/ml), CAP1 in solution, pH 7.5, association and dissociation 600 s. The conditions noted are these: both partners purified.

Assay [2] addresses T2, Human PCSK9 (full length), 6xHis-tagged, purified (human, UniProt Q8NBP7, biotinylated where it was immobilised for BLI (site not told)).
T2 construct: human PCSK9, full length cDNA in pIRES2-EGFP; also called full-length PCSK9; proprotein convertase substilisin kexin 9; source: FreeStyle293 FS cells, transfected, purified (NiNTA, size-exclusion chromatography)
The experiment in a line: SEC + other: SAXS; size exclusion chromatography followed by small angle X-ray scattering of PCSK9 alone or in complex with P1.40, in solution. The conditions noted are these: both partners purified.

The target of assay [3] is T2, Human PCSK9 (full length), …. The experiment in a line: BLI; biotinylated P1.40 immobilised (0.25 μg/μL), PCSK9 or CHRD in solution, pH 7.5, 1:1 binding model; association 3600 s (PCSK9) or 1800 s (CHRD), dissociation 3600 s. The conditions noted are these: both partners purified.
Assay [4] has as its target T3, CHRD (aa 449–693) of human PCSK9, 6xHis-tagged (human, UniProt Q8NBP7, biotinylated where it was immobilised for BLI (site not told)).
T3 construct: human PCSK9, C-terminal Cys/His-rich domain, aa 449-693 as printed (modules M1 453-529, M2 530-603, M3 604-692); also called C-terminal Cys/His-rich domain; CHRD alone; source: FreeStyle293 FS cells, transfected, purified (NiNTA, size-exclusion chromatography)
Described as above. The conditions noted are these: both partners purified.

The next assay deals with T4, CHRD R476A mutant (Homo sapiens (Human)., UniProt Q8NBP7, R476A).
T4 construct: human PCSK9 CHRD, aa 449-693 as printed for the parent construct; source: HEK293 cells
The experiment in a line: flow cytometry on cells; P1.40 or its mutants expressed on yeast cells (HA-tagged), 6xHis-tagged CHRD or its mutants in solution; cell binding assays and FACS sorting for deep mutational scanning. Conditions: one partner purified.

The target in the next assay is T5, CHRD D480A mutant (Homo sapiens (Human)., UniProt Q8NBP7, D480A).
T5 construct: human PCSK9 CHRD, aa 449-693 as printed for the parent construct; source: HEK293 cells
The assay is described as above. The conditions noted are these: one partner purified.

The target in the next assay is T6, CHRD F456A mutant (Homo sapiens (Human)., UniProt Q8NBP7, F456A).
T6 construct: human PCSK9 CHRD, aa 449-693 as printed for the parent construct; source: HEK293 cells
The assay is described as above. Conditions: one partner purified.

T1 sequence (Q01518 whole entry): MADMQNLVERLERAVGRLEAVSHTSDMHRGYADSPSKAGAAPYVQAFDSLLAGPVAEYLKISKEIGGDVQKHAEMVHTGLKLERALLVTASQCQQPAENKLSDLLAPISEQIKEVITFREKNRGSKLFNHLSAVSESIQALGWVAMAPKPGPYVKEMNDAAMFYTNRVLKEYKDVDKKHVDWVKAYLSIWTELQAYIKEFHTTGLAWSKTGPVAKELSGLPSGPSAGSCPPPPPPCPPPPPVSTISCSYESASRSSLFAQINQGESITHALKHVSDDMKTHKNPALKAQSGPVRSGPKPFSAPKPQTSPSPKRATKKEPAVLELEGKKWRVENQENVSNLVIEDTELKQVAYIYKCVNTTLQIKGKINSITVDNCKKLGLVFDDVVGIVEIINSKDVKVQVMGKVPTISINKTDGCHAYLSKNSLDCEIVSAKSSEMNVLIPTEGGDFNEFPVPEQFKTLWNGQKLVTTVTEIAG

B1: CHRD (aa 449–693) of human PCSK9, 6xHis-tagged (domain or fragment, UniProt Q8NBP7 449-692, looked up)
chain: HGAGWQLFCRTVWSAHSGPTRMATAVARCAPDEELLSCSSFSRSGKRRGERMEAQGGKLVCRAHNAFGGEGVYAIARCCLLPQANCSVHTAPPAEASMGTRVHCHQQGHVLTGCSSHWEVEDLGTHKPPVLRPRGQPNQCVGHREASIHASCCHAPGLECKVKEHGIPAPQEQVTVACEEGWTLTGCSALPGTSHVLGAYAVDNTCVVRSRDVSTTGSTSEGAVTAVAICCRSRHLAQASQELQ
modifications: biotinylated where it was immobilised for BLI (site not told)
notes: human PCSK9, C-terminal Cys/His-rich domain, aa 449-693 as printed (modules M1 453-529, M2 530-603, M3 604-692); also called C-terminal Cys/His-rich domain; CHRD alone; source: FreeStyle293 FS cells, transfected, purified (NiNTA, size-exclusion chromatography)
On to B1, for which, in assay [1], the Kd is 1260 nM, the koff was 0.0007 s⁻¹ and the kon was 560 M⁻¹ s⁻¹.

B2: P1.40, CHRD-specific single domain antibody (nanobody), purified from E. coli (VHH)
VHH: QVKLEESGGGLVQAGGSLRLSCSPSDRTFSAYAMGWFRQVPGREREFVATIRDSDASIYYTDSVKGRFTISRDNAKNTVYLQMNSLIPDDTAVYYCAARQYYSGRVYSTFREEYDYWGQGTQVTVSS
notes: TEV site ENLYFQ/G: a glycine may be left at the N-terminus after cleavage; also called nanobody P1.40; biotinylated P1.40; source: E. coli BL21 (DE3) pLysS, purified (HisTrap, TEV cleavage, size-exclusion chromatography); not shown: DsbC, N-terminal, cleaved; His6, N-terminal, cleaved
On to B2, for which, in assay [2], the “stoichiometry N” value stood at 1. In assay [3], this molecule came in with a Kd of 5.6 nM, an off-rate (koff) of 9e-06 s⁻¹ and a kon of 1600 M⁻¹ s⁻¹. In assay [4], the Kd came out at 0.0903 nM, the koff is 3.5e-05 s⁻¹ and the kon came to 380000 M⁻¹ s⁻¹.

B3: P1.40 expressed on yeast cells (cell surface, HA-tagged) (VHH)
VHH: B2 VHH
B3: the “fold decrease of affinity against wild-type CHRD” value was determined as 17 fold in the assay with CHRD R476A mutant, 142 fold with CHRD D480A mutant and 12 fold in the assay with CHRD F456A mutant.
